In US20260250410A1, “ANTIBODY AND USE THEREOF” (SICHUAN HUIYU PHARMACEUTICAL CO., LTD., priority 2022, published 2026):
Positions count from the first letter of the chain named.

T1: HuCDCP1-C (Homo sapiens, UniProt Q9H5V8)
T1 construct: made in house; host or cells: HEK-293T
T1 sequence (Q9H5V8 30-667): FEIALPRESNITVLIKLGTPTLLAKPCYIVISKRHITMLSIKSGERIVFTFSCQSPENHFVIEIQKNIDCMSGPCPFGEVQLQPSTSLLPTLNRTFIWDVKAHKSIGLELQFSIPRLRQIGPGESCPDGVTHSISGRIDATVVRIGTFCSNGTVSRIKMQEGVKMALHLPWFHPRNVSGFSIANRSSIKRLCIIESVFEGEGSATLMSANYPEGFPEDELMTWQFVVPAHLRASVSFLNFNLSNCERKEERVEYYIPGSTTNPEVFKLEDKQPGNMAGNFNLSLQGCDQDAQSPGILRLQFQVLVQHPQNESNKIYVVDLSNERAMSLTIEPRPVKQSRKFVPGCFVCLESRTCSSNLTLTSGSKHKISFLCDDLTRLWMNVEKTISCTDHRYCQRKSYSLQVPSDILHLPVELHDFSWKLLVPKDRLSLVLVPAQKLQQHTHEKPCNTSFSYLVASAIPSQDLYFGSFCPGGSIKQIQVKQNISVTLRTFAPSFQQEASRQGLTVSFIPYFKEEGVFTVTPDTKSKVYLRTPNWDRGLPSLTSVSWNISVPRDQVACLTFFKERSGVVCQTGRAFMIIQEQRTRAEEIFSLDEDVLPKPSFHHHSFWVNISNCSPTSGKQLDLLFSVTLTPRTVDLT

B1: 1CP-152: humanized anti-CDCP1 antibody produced by 8C9; VH SEQ ID NO: 344, VL SEQ ID NO: 354 (antibody, V domains shown)
VH: EVQLVESGGGLVQPGRSLRLSCTTSGLTFTHYHMSWVRQAPGKGLEWVAIIRNKAYGYTTDYSASVRGRFTISRDDSKSILYLQMNSLKTEDTAVYYCVREGGYGYDGTFAYWGQGTLVTVSS
VL: DIQMTQSPSSLSASVGDRVTITCRASESVDNYGISFMNWFQQKPGQAPKLLIYAASNQGSGVPSRFSGSGSGTDFTLTISSMQPEDFATYYCQQSKEVPRTFGGGTKVEIK
modifications: humanized antibody 8C9 heavy chain variable region 02; humanized antibody 8C9 light chain variable region 01
B2: 1CP-157: humanized anti-CDCP1 antibody produced by 8C9; VH SEQ ID NO: 345, VL SEQ ID NO: 355 (antibody, V domains shown)
VH: B1 VH with L45P
VL: B1 VL with A47P
modifications: humanized antibody 8C9 heavy chain variable region 03; humanized antibody 8C9 light chain variable region 02
B3: 1CP-129: humanized anti-CDCP1 antibody produced by 3C11; VH SEQ ID NO: 340, VL SEQ ID NO: 352 (antibody, V domains shown)
VH: QVQLVQSGAEVKKPGASVKVSCKASGYNFISYWLHWVRQAPGQGLEWMGGIYPGNTDTTYNQKFKGRVTMTADTSTSTVYMELSSLRSEDTAVYYCIRYDYDRGMDYWGQGTLVTVSS
VL: DIQMTQSPSSLSASVGDRVTITCRASEDIYYRLAWYQQKPGKAPKLLISGATALETGVPSRFSGSGSGKDYTLTISSLQPEDIATYYCQHYWNIPWTFGQGTKVEIK
modifications: humanized antibody 3C11 heavy chain variable region 02; humanized antibody 3C11 light chain variable region 02

Target: T1, HuCDCP1-C
Assay: Caterra affinity of humanized anti-CDCP1 antibodies
Assay type: binding
Conditions: HuCDCP1-C 2 μg/ml immobilized
Description: The humanized anti-CDCP1 antibodies obtained from Example 11 were subjected to gene cloning, constructed into pTT5 expression vector for a small amount of expression in CHO cells (Expi-CHOS: Gibco A29127), and purified with an Fc affinity column (AT Protein A Diamond Plus. No. AA402312). Antibody purity was analyzed by HPLC and determined by Nanodrop. High-throughput affinity assay was carried out for a small amount of antibodies by Caterra.

In order of falling “ka” value:
1. B3  160000 M⁻¹ s⁻¹
2. B2  122000 M⁻¹ s⁻¹
3. B1  114000 M⁻¹ s⁻¹

In order of rising “kd” value:
1. B3  1e-05 s⁻¹
2. B2  0.000385 s⁻¹
3. B1  0.000465 s⁻¹

Tested on: MDA-MB-231 cells
Assay: Endocytosis capacity of humanized antibodies
Assay type: cell-based, human
Conditions: MDA-MB-231, 1 h at 37° C., antibody 1.5 μg/mL
Description: The endocytosis capacity of the anti-CDCP1 humanized antibody was detected with reference to example 5. MDA-MB-231 cells were subjected to digestion with 5 mM EDTA, and plated at 3×10^4 cells/well after cell counting. After adding an Fc blocker and blocking at room temperature for 10 mins, a test antibody (1.5 μg/mL) was added, and the mixture was incubated at 4° C. for 30 mins, centrifuged, and washed twice with PBS+2% FBS, then the cells were divided into three equal portions (labeled as 0 h, 1 h, 2 h), cells labeled as 1 h and 2 h time points were added to 200 μL of cell culture medium, and cultured at 37° C. for 1 h and 2 h, respectively. Cells at 0 h point were centrifuged, a secondary antibody (PE anti-human IgG Fc Antibody, Biolegend, 410708) was added, and the mixture was incubated at 4° C. for 30 mins, centrifuged, and washed twice with PBS+2% FBS, and detection was performed using a flow cytometer. After incubation of cells labeled as 1 h and 2 h points at 37° C. was completed, a secondary antibody was added (in the same steps as those at 0 h point), Geo-MFI of the signal under the same voltage was collected as detection signal at 0 h, and antibody internalization rate was calculated according to the following equation: Internalization (%)=(Geo-MFI (0 h)-Geo-MFI (1, 2 h))/Geo-MFI (0 h)×100%.

In order of falling “1 h endocytosis (%)” value:
1. B2  56.06%
2. B1  54.39%
3. B3  36.18%

Same assay, conditions: MDA-MB-231, 2 h at 37° C., antibody 1.5 μg/mL

In order of rising “2 h endocytosis (%)” value:
1. B3  54.25%
2. B1  69.96%
3. B2  70.74%
